“Also recorded” adds a separate entry of the source.
B1: HPV16 E6: recombinant full length HPV16 E6 fusion protein (MBP-E6 or GST-E6) microinjected into Xenopus oocytes (protein)
chain: MHQKRTAMFQDPQERPRKLPQLCTELQTTIHDIILECVYCKQQLLRREVYDFAFRDLCIVYRDGNPYAVCDKCLKFYSKISEYRHYCYSLYGTTLEQQYNKPLCDLLIRCINCQKPLCPEEKQRHLDKKQRFHNIRGRWTGRCMSCCRSSRTRRETQL

Key:
[1] = system: c-JUN N-terminal kinase (JNK); assay: Jun kinase assay in microinjected Xenopus oocytes; assay type: cell-based; design: inhibition of HPV16 E6-dependent JNK activation by co-injected peptide: dose or concentration left out as unconfirmed; settings: Xenopus oocytes; for JNK activation by microinjected E6 fusion protein: MBP-E6 or GST-E6 protein (100 nM, 3h), GST-Jun phosphorylation
Method: Experimental Design: This experiment was divided into two phases. In the first phase, an MBP-E6 fusion protein (HPV16; see example 4) was microinjected into Xenopus oocytes at different concetrations and then the oocytes were assayed for INK activity. In the second phase, peptides corresponding to the C-termini of non-oncogenic E6 protein (HPV11), HPV16 E6 (oncogenic) or Tax (shown to block oncogenic E6 binding to PDZ domains, FIG. 3) were co-injected with an activating amount of MBP-E6 fusion protein to assess ther abilities to block JNK activation.
Isolation and Microinjection of Oocytes—Xenopus ovarian tissue was surgically removed, and oocytes were defolliculated for 1-1.5 h at room temperature with 2 mg/ml collagenase and 0.5 mg/ml polyvinylpyrrolidone in Ca21-free modified Barth's solution (88 mM NaCl, 1 mM KCl, 0.82 mM MgSO4, 2.4 mM NaHCO3, 10 mM HEPES, pH 7.5). The oocytes were then washed four times with modified Barth's solution. Stage VI oocytes were sorted manually and incubated at 16° C. for at least 10 h in OR2 solution (82.5 mM NaCl, 2.5 mM KCl, 1 mM CaCl2, 1 mM Na2HPO4, 5 mM HEPES, pH 7.5) supplemented with 1 mg/ml bovine serum albumin and […] gentamicin. Immature oocytes were microinjected with purified MBP-E6 protein or E6 protein and peptide and transferred to fresh OR2 for the duration of the time course. Five oocytes were collected per time point, frozen on dry ice, and stored at −80° C.
Lysis of Oocytes, Eggs, and Embryos—Frozen oocytes, eggs, and embryos were thawed rapidly and lysed by pipetting up and down in 60 ml of ice-cold extraction buffer (EB) (0.25 M sucrose, 0.1 M NaCl, 2.5 mM MgCl2, 20 mM HEPES, pH 7.2) containing 10 mM EDTA, protease inhibitors (10 mg/ml leupeptin, 10 mg/ml pepstatin, 10 mg/ml aprotinin, 1 mM phenylmethylsulfonyl fluoride), and phosphatase inhibitors (50 mM 2-glycerophosphate, 1 mM sodium orthovanadate, 2 mM microcystin). Samples were clarified by centrifugation for 2.5 min in a Beckman E microcentrifuge with a right angle rotor. Crude cytoplasm was collected and processed for immunoblotting or kinase assays, as described below.
Jun Kinase Assay—Jun kinase assays were performed as described. Crude oocyte, egg, or embryo cytoplasm was diluted 1:1 in EB and pre-cleared with 20 ml of glutathione-Sepharose beads (Amersham Pharmacia Biotech) for 1 h at 4° C. with moderate shaking. Lysates were incubated with glutathione S-transferase GST-c-Jun-(1-79) fusion protein (hereafter denoted GST-Jun) immobilized on glutathione- Sepharose beads. After 3 h at 4° C., the beads were washed three times with 50 mM HEPES, pH 7.5, 150 mM NaCl, 1% Triton X-100, 1 mM EDTA, 10% glycerol, 10 mM sodium pyrophosphate, 2 mM sodium orthovanadate, 10 mM sodium fluoride, 1 mM phenylmethylsulfonyl fluoride, and 10 mg/ml aprotinin (24) and once with 0.4 ml of kinase buffer (20 mM HEPES, pH 7.5, 10 mM MgCl2, 1 mM dithiothreitol, 200 mM sodium orthovanadate). The bound JNK activity was detected by the addition of 1 mCi of [g-32]JATP. The reaction was terminated after 20 min at 30° C., and the products were resolved by SDS-PAGE. The gels were transferred to PVDF membranes (Hybond; Amersham Pharmacia Biotech) and the incorporation of [32P]phosphate into GST-Jun was visualized by autoradiography. […]

[2] = target: T1, HPV16 E6/TIP 1 interaction (Homo sapiens, UniProt O14907); assay: Modified G assay, inhibition of TIP1-HPV E6 16 binding; settings: HPV E6 16 peptide 10 uM, TIP1 fusion protein 5 ug/mL, Tax peptide 0.001-100 uM, FIG. 3
T1 construct: made in house; host or cells: E. coli
T1 sequence (O14907 14-116): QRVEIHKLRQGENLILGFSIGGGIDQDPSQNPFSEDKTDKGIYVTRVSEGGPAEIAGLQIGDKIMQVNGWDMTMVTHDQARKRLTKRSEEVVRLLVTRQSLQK
Method: In one embodiment (in which a G assay is used), one or more PDZ domain-containing GST-fusion proteins are bound to the surface of wells of a 96-well plate as described supra (with appropriate controls including nonfusion GST protein). All fusion proteins are bound in multiple wells so that appropriate controls and statistical analysis can be done. A test compound in BSA/PBS (typically at multiple different concentrations) is added to wells. Immediately thereafter, 30 uL of a detectably labeled (e.g., biotinylated) peptide known to bind to the relevant PDZ domain (see, e.g., TABLE 3) is added in each of the wells at a final concentration of, e.g., between about 2 uM and about 40 uM, typically 5 uM, 15 uM, or 25 uM. […] The surface is washed free of unbound peptide three times with ice cold PBS and the amount of binding of the peptide in the presence and absence of the test compound is determined. Usually, the level of binding is measured for each set of replica wells (e.g. duplicates) by subtracting the mean GST alone background from the mean of the raw measurement of peptide binding in these wells. […]
Protocol • 1. […] Take early readings, if necessary, at 650 nm • 17. At 30 minutes, stop reaction with 100 ul of 0.18M H2SO4, and take final reading at 450 nm […]

| Molecule | JNK activation by microinjected E6 fusion protein [1] | inhibition of binding between TIP1 and HPV E6 16 (A450) [2] | inhibition of binding between TIP1 and HPV E6 16 (A450) ([2]; listed as Tax peptide) | inhibition of HPV16 E6-dependent JNK activation by co-injected peptide ([1]; co-injected with activating amount of HPV16 E6 fusion protein) | JNK activation by microinjected E6 fusion protein ([1]; listed as HPV E6 16) |
| --- | --- | --- | --- | --- | --- |
| HPV18 E6: recombinant GST-E6 fusion protein of HPV18 microinjected into Xenopus oocytes | activated the JNK MAPK pathway in the oocyte | – | – | – | – |
| Tax PL peptide: unlabeled peptide corresponding to the C-terminus of Tax, an independent PDZ ligand that binds similar PDZ domains (QISPGGLEPPSEKHFRETEV) | – | decrease binding between TIP1 and HPV E6 16 | Inhibition of the interaction between HPV E6 16 and TIP1 | can be inhibited by co-injection | – |
| B1 | activates c-JUN N-terminal kinase; also recorded: activated the JNK MAPK pathway in the oocyte | – | – | – | activates c-JUN N-terminal kinase (JNK) |
